Test results: publication PMC9456514, “Three-Dimensional Envelope and Subunit Interactions of the Plastid-Encoded RNA Polymerase from Sinapis alba” (International Journal of Molecular Sciences, 2022)

Molecular target: T1, β subunit of the plastid-encoded RNA polymerase (SaRpoB) (Sinapis alba (endogenous in cotyledon …, UniProt P46818 1-1078))
T1 construct: RNA polymerase β subunit, product of the plastid gene rpoB, Sinapis alba
T1 sequence (looked up): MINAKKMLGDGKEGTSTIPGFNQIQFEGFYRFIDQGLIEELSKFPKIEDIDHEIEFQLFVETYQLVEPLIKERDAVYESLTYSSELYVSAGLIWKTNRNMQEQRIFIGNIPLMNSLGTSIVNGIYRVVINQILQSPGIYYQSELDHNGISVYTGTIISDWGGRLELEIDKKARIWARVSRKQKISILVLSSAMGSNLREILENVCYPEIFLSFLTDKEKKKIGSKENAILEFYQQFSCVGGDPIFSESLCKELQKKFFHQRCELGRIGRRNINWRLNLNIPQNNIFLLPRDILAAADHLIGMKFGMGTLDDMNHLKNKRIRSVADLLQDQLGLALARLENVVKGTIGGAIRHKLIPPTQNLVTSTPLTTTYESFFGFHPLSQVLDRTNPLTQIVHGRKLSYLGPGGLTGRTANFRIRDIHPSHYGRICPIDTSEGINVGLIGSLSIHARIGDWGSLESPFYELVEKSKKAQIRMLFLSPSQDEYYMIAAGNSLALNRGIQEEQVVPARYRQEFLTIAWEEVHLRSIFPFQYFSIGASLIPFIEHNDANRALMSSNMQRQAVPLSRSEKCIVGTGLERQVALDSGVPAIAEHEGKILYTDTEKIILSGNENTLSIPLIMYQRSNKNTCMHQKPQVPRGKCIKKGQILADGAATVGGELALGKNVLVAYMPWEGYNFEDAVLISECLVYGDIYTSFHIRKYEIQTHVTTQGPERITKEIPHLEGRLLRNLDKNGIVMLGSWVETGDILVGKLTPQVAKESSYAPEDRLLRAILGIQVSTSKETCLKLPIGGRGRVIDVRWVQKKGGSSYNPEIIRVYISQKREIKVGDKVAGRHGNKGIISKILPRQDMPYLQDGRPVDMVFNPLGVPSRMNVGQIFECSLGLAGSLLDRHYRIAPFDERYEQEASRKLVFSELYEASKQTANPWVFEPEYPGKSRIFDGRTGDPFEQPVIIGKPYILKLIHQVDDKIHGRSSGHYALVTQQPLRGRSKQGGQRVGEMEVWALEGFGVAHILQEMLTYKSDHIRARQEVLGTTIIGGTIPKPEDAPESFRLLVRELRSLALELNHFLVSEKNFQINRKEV
Assay: co-purification of the native complex with mass spectrometry; chloroplast lysate of S. alba cotyledons; heparin resin (elution 1.2 M (NH4)2SO4), 35-15% glycerol gradient, Q-Sepharose (0-1 M NaCl), 100-kDa cutoff concentration; three independent preparations; label-free MS, iBAQ values
Settings: partners not purified

stoichiometry N: ~2
B1: α subunit of the plastid-encoded RNA polymerase (SaRpoA) (natural protein, UniProt Q9XQN8 1-327, looked up)
chain: MVREKVKVSTRTLQWKCVESRRDSKRLYYGRFILSPLMKGQADTIGIAMARALLGEIEGTCITRAKSENIPHDYSNIVGIQESVHEILMNLNEIVLKSNLYGTRNPFICVQGPGYITARDIILPPSVEIVDNTQHIATLTEPINLCIGLKIERNRGYSLKMSNNFEDRSYPIDAVFMPVQNANHSIHSYGNGNEKQEILFIEIWTNGSLTPKEALYEASRNLINLFIPFLHVEEETFYLENNQHQVTLPVFPFHNKLVNLRQKKKELAFQYIFIDQLELPPRIYNCLKKSNIHTLLDLLNNSQEDLIKMEHFHIEDVKKLLDILEKK
notes: RNA polymerase α subunit, product of the plastid gene rpoA, Sinapis alba
